Reference: the supplement of paper PMC10567573

B1: SNAP91 (parent)
chain: FAAPSPATTASPAKVDSSGVIDLF
B2: INTS3 (parent)
chain: FSDDEEDLNSKGKKREFRFHPIKE

Variants of: B1
Test: protein stability index of a GFP-peptide fusion (GPS, HEK-293T) (PSI 1-6); higher = more stable
Conditions: c terminus: a fixed tail appended
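Note: lentivirally expressed fusions sorted by FACS into six bins by GFP to DsRed ratio, PSI derived from sequencing read proportions per bin multiplied by bin number.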

Protein stability index of substitutions, site by site:
G19: L 2.24, E 2.84, A 2.56, R 2.44, K 2.38, H 2.4
S17: V 2.17, D 2.55, Q 2.52
A7: N 2.46, S 2.49, H 2.7
F24: D 4.54, P 4.31
P4: R 2.12, W 1.76, M 2.18, D 2.33, V 2.13, I 1.77
A3: H 2.23, V 2.46, F 1.62, C 1.99, P 2.44, Y 1.79, T 2.6
L23: Q 4.46, Y 3.2
V15: P 2.65, E 3.03, K 2.92, R 2.6, I 2.24, Q 2.04
S18: G 2.56, K 2.46, Q 2.49
V20: Q 2.96, W 1.54, S 2.43, I 2.25, A 2.45, K 2.78
S11: T 2.48, R 2.45, F 1.96
D22: V 1.75, Q 2.26, T 1.73, F 2.93, P 2.68, L 2.57
I21: Y 2.11, W 1.88, N 4.12, T 3.07, P 2.8, E 3.96, Q 3.05, K 3.79
A10: D 2.57, L 2.74, V 2.94, R 1.99, N 2.59
T9: Q 2.46, S 2.77, W 3.89, G 2.28, H 2.66, I 2.16
S5: K 2.66, H 1.96, I 1.95, C 2.16, F 1.97, G 2.45
P6: G 2.31, M 2.44, H 2.36, F 2.02, W 2.35
D16: S 1.91, E 2.17, I 1.99, T 2.54, Y 1.53, P 2.19
K14: L 2.28, Y 2.24, G 2.05, M 2.3, D 2.47
A13: T 2.33, F 2.01, R 2.34, D 2.71, K 3.05, V 2.79
A2: R 2.89, N 3.45, M 2.27, S 2.97, Y 2.09, L 2.56, F 2.44
F1: Q 4.28, N 3.79, T 4.13
T8: Q 2.54, Y 1.94, C 2.56
P12: D 2.6, F 1.8, A 2.19, L 2.49

Variants of: B2
Test: as above
Conditions: c terminus: a fixed tail appended

Protein stability index, by site and new letter:
E24: T 1.81, Y 2.72, H 2.2, D 3.07, S 2.11, Q 2.35, N 2.69, A 2.2, V 2.07, I 2.06, L 2.14, P 1.76, R 2.31, G 2.17, C 2.18, K 2.14, M 1.8, F 1.91, W 2.45
R15: S 3.6, L 2.53, W 2.42, F 2.81, T 3.38, Y 2.56, E 4.63, H 2.26, N 3.49, M 2.56, Q 3.62, C 3.31, K 3.89, G 3.2, A 3.8, I 3.47, V 3.14, P 2.6, D 3.94
I22: A 2.88, V 3.07, E 3.89, S 2.63, W 2.33, K 2.81, R 3, M 3.2, Y 2.48, G 2.98, T 3.29, N 2.88, F 2.12, D 3.98, H 2.91, Q 3.32, C 2.48, L 3.19, P 3.25
F17: R 4.97, H 5.01, M 4.79, C 5.31, N 5.01, P 5.06, Q 5.18, S 5.44, W 2.01, I 4.9, E 5.03, K 5.12, V 4.85, T 5.04, D 4.43, Y 4.35, L 4.76, G 5.18, A 5.13
E16: K 3.69, L 3.46, Y 2.61, G 2.41, H 3.08, V 2.89, C 2.37, T 2.67, I 2.58, A 2.25, Q 2.61, R 2.23, W 2.45, D 4, N 2.88, S 2.93, F 3.05, P 2.17, M 2.74
P21: K 4.55, L 4.25, E 4, I 3.7, H 4.01, Q 3.44, V 3.88, M 3.32, Y 3.73, R 4.19, C 3.28, W 2.53, G 4.16, F 3.58, A 3.98, N 4.11, S 3.88, T 4.43, D 3.76
K13: S 3.06, P 2.85, R 2.99, Q 3.29, T 3.11, W 2.29, V 2.11, Y 3.02
K23: C 3.43, Q 3.18, T 3.52, N 3.18, Y 2.91, E 3.64, R 2.68, A 3.81, F 3.4, P 3.06, L 2.95, G 3.19, H 3.34, M 3.5, I 2.93, D 4.1, W 2.75, V 3.06, S 3.19
R18: E 5.1, V 4.56, N 5.14, I 4.55, W 3.35, F 3.27, G 4.77, Y 4.36, C 4.57, S 4.12, K 4.63, H 4.85, M 4.9, Q 5.2, A 4.33, D 4.94, L 4.57, P 4.76, T 4.64
F19: V 5.1, I 4.68, S 5.6, T 5.06, W 3.72, N 5.26, Q 5.14, L 4.67, Y 3.49, A 5.07, G 4.98, E 5.59, K 5.4, P 5.07, C 4.98, R 5.29, D 5.53, H 5.29, M 4.86
H20: A 4.58, N 4.69, W 4.31, T 4.59, E 5.28, G 4.34, I 4.59, C 4.31, F 3.94, R 4.24, S 5.18, K 5.13, M 4.83, Q 4.44, L 5.1, D 5.39, V 3.92, P 4.86, Y 4.51
K14: E 3.44, I 1.88, S 3.79, N 3.27, R 2.88, F 2.13, T 3.46, H 2.86, L 2.11, Y 2.48, W 1.53, C 2.66, Q 3.1, P 3.46, M 1.41, G 2.96, D 3.73, V 2.03, A 3.01
